For assay [1], the target named is cyno CLDN6 VLP (virus-like particle) (cynomolgus monkey).
The target of assay [2] is T1, human CLDN6 VLP (virus-like particle) (human, UniProt P56747 1-220).
T1 chain: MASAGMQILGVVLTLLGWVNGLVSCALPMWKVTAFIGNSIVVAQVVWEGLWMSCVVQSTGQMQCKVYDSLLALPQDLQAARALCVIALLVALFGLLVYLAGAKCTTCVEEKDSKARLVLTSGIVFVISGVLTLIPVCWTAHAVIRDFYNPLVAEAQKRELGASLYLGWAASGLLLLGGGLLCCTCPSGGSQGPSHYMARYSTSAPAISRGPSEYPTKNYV
Put plainly: SPR Biacore T200, 25 C, pH 7.4, CLDN6 VLP captured by anti-human CD81 on C1 chip, antibody injected at 50 and 200 nM, 1:1 fit.

In the next assay the target is T2, recombinant cyno CD137 (cynomolgus monkey, UniProt A9YYE7 24-186).
T2 sequence: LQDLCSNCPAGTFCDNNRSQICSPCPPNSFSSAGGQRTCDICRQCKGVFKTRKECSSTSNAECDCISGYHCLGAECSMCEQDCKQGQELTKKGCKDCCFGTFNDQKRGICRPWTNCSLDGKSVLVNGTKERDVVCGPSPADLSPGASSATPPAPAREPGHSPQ
Kind of assay: SPR Biacore 8K, 37 C, pH 7.4, antibody captured by anti-human Fc on CM4 chip, CD137 injected at 500 and 2000 nM, 1:1 fit.

The target in assay [3] is T3, Human CD137 extracellular domain (ECD) with hexahistidine (His-tag) and biotin acceptor peptide (BAP) (human).
T3 construct: Expressed in FreeStyle293F cells; also called recombinant human CD137; human CD137 ECD; not shown: C-terminal hexahistidine tag and biotin acceptor peptide (BAP)
T3 sequence (chain, as listed by the source): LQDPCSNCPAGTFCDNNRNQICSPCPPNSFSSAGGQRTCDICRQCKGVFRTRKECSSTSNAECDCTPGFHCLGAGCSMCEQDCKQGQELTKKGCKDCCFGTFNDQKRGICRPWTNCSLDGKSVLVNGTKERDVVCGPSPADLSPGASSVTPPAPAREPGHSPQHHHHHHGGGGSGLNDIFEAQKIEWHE
The description is as above.

The next assay concerns the target T4, recombinant cyno CD3eg (cynomolgus monkey).
T4 construct: Construct not described; also called cyno CD3eg (gamma and epsilon subunits of CD3)
Kind of assay: SPR Biacore 8K, 25 C, pH 7.4, antibody captured by anti-human Fc on CM4 chip, CD3eg injected at 500 and 2000 nM, 1:1 fit.

A further assay addresses T5, human CD3eg linker (human).
T5 construct: Single-chain construct: CD3 gamma and epsilon subunits joined by a 29-mer linker, Flag-tag at the C-terminal end of the gamma subunit; also called recombinant human CD3; gamma and epsilon subunits of the human CD3 complex linked by a 29-mer linker, Flag-tag
T5 chain: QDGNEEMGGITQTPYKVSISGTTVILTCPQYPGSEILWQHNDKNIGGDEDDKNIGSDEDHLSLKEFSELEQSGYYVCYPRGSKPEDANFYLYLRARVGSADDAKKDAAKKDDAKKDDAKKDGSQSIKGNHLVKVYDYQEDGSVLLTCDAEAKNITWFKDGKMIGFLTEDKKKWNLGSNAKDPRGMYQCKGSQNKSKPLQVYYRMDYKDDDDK
Described as above.

The target in another assay is T6, hCLDN9/BaF3.
T6 construct: also called human CLDN9 on Ba/F3 cells
T6 membrane protein: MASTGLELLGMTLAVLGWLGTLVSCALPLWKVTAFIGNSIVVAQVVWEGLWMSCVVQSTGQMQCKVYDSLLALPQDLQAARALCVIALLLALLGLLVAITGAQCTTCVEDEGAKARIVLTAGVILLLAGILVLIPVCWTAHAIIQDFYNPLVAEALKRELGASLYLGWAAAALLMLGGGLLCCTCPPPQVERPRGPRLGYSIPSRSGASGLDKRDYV
Put plainly: flow cytometry on hCLDN9/BaF3 cells, detection with Alexa Fluor 488 anti-human IgG.

The next assay has as its target T7, hCLDN3/BaF3.
T7 construct: also called human CLDN3 on Ba/F3 cells
T7 membrane protein: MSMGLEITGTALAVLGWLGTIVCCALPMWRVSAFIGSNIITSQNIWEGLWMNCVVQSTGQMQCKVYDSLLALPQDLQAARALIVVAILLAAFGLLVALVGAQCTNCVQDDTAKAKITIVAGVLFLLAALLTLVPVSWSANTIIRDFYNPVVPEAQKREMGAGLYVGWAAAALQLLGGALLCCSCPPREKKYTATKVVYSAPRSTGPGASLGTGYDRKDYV
Kind of assay: flow cytometry on hCLDN3/BaF3 cells, detection with Alexa Fluor 488 anti-human IgG.

A further assay has as its target T8, hCLDN4/BaF3.
T8 construct: also called human CLDN4 on Ba/F3 cells
T8 membrane protein: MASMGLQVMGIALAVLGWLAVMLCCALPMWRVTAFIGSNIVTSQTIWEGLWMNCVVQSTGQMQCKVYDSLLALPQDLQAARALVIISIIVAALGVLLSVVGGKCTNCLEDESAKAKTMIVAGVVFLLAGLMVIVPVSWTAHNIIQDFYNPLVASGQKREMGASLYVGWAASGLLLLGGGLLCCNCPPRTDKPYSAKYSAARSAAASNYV
Kind of assay: flow cytometry on hCLDN4/BaF3 cells, detection with Alexa Fluor 488 anti-human IgG.

Assay [4] has as its target T9, human CLDN6 on Ba/F3 cells (hCLDN6/BaF) (human, UniProt P56747 1-220).
T9 construct: also called human Claudin-6
T9 chain: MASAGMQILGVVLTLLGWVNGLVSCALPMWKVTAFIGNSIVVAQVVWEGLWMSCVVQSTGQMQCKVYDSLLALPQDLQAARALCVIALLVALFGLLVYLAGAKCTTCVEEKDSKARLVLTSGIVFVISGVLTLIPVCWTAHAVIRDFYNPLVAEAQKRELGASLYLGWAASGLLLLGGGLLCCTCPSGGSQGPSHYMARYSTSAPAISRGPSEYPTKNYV
Put plainly: flow cytometry on hCLDN6/BaF3 cells, detection with Alexa Fluor 488 anti-human IgG.

T4 sequence (Q95LI5 22-117, chain 1 of 2): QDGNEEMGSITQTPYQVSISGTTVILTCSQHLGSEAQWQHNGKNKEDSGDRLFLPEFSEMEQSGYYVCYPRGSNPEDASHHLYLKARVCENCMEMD
T4 sequence (Q95LI7 23-113, chain 2 of 2, further chain): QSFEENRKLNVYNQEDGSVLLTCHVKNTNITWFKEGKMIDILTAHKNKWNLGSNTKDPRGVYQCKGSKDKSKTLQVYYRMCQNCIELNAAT

B1: PPU4135 (bispecific antibody, human IgG1, kappa, L234A L235A, N297A)
heavy 1: QVQLVESGGGVVQPGGSLRLSCAASGFTFSSYTMSWVRQAPGQGLEWMGTISSGGGRTYYPDSVKGRFTISRDNSKNTLYLQMNSLRDEDTAVYYCARGDYRYDGFAYWGEGTLVTVSSASTKGPSVFPLAPSSKSTSGGTAALGCLVEDYFPEPVTVSWNSGALTSGVHTFPAVLESSGLYSLSSVVTVPSSSLGTQTYICNVNHKPSNTKVDKRVEPKSCDKTHTCPPCPAPEAAGGPSVFLFPPKPKDTLMISRTPEVTCVVVDVSHEDPEVKFNWYVDGVEVHNAKTKPREEQYASTYRVVSVLTVLHQDWLNGKEYKCKVSNKALPAPIEKTISKAKGQPREPQVYTLPPSREEMTKNQVSLTCLVKGFYPSDIAVEWESNGQPENNYKTTPPVLDSDGSFFLYSKLTVDKSRWQQGNVFSCSVMHEALHNHYTQESLSLSP
light 1: DIQMTQSPSSLSASVGDRVTITCRASYNIDSYLAWYQQKPGKAPELLIYYSTLLVDGVPDRFSGSRSGTDFTLTISSLQPEDFATYYCQHYYSIPYTFGQGTKVEIERTVAAPSVFIFPPSDEQLKSGTAKVVCLLNNFYPREAKVQWKVDNALQSGNSKESVTEQDSKDSTYSLSSTLTLSKADYEKHKVYACEVTHQGLSSPVTKSFNRGEC
heavy 2: QVQLVESGGGLVQPGRSLRLSCAASGFKFSNVWFHWVRQAPGKGLEWVAQIKDYYNAYAAYYAPSVKGRFTISRDDSKNSIYLQMNSLKTEDTAVYYCHYVHYASASTLLPAEGVDAWGQGTTVTVSSASTKGPSVFPLAPSSKSTSGGTAALGCLVKDYFPEPVTVSWNSGALTSGVHTFPAVLKSSGLYSLSSVVTVPSSSLGTQTYICNVNHKPSNTKVDKRVEPKSCDKTHTCPPCPAPEAAGGPSVFLFPPKPKDTLMISRTPEVTCVVVDVSHEDPEVKFNWYVDGVEVHNAKTKPREEQYASTYRVVSVLTVLHQDWLNGKEYKCKVSNKALPAPIEKTISKAKGQPREPQVYTLPPSRKEMTKNQVSLTCLVKGFYPSDIAVEWESNGQPENNYKTTPPVLDSDGSFFLYSKLTVDKSRWQQGNVFSCSVMHEALHNHYTQKSLSLSP
light 2: DIVMTQSPLSLPVTPGEPASISCQPSQEVVHMNRNTYLHWYQQKPGQAPRLLIYKVSNRFPGVPDRFSGSGSGTDFTLKISRVEAEDVGVYYCAQGTSHPFTFGQGTKLEIKRTVAAPSVFIFPPSDEQLKSGTAEVVCLLNNFYPREAKVQWKVDNALQSGNSEESVTEQDSKDSTYSLSSTLTLSKADYEKHKVYACEVTHQGLSSPVTKSFNRGEC
notes: also called CS4135; Ab03
B1: the Kd in [1] amounted to 3.77 nM; in assay [2] it was 3.65 nM; with recombinant cyno CD137, 174 nM; in assay [3] it was 46.8 nM; with recombinant cyno CD3eg, 329 nM; with human CD3eg linker it was 341 nM. For the same molecule, the off-rate constant (koff) in [1] was 0.000821 s⁻¹; in assay [2], 0.000794 s⁻¹; with recombinant cyno CD137, 0.00146 s⁻¹; in [3], 0.000591 s⁻¹; with recombinant cyno CD3eg it was 0.0332 s⁻¹; with human CD3eg linker, 0.0266 s⁻¹. Moreover, the kon in assay [1] is 218000 M⁻¹ s⁻¹; in assay [2], 217000 M⁻¹ s⁻¹; with recombinant cyno CD137, 8350 M⁻¹ s⁻¹; in [3], 12600 M⁻¹ s⁻¹; in the assay with recombinant cyno CD3eg, 101000 M⁻¹ s⁻¹; with human CD3eg linker, 78000 M⁻¹ s⁻¹.

B2: CS2961 (bispecific antibody, V domains shown)
VH 1: QVQLVESGGGVVQPGGSLRLSCAASGFTFSSYTMSWVREAPGQGLEWMGTISSGGGRTYYPDSVKGRFTISRDNSKNTLYLQMNSLRDEDTAVYYCARGDYRYDGFAYWGEGTLVTVSS
VL 1: DIQMTQSPSSLSASVGDRVTITCRASYNIDSYLAWYQKKPGKAPELLIYYSTLLVDGVPDRFSGSRSGTDFTLTISSLQPEDFATYYCQHYYSIPYTFGQGTKVEIE
VH 2: QVQLVESGGGVVQPGGSLRLSCAASGFTFSNAWMHWVRKAPGKGLEWVAQIKDKSQNYATYVAESVKGRFTISRADSKNSIYLQMNSLKTEDTAVYYCRYVHYAAGYGVDIWGQGTTVTVSS
VL 2: DIVMTQSPLSLPVTPGEPASISCRSSQPLVHSNRNTYLHWYQEKPGQAPRLLIYKVSNRFSGVPDRFSGSGSGTDFTLKISRVEAEDVGVYYCGQGTQVPYTFGQGTKLEIK
notes: detected with anti-human IgG; also called anti-CLDN6/CD3 bispecific antibody (CS2961)
Take B2: the binding result with hCLDN9/BaF3, in the assay with hCLDN3/BaF3 and with hCLDN4/BaF3 was “no binding (tested: 15 micro g/ml)” in each case.

B3: KLH/TR01 (bispecific antibody, V domains shown)
VH 1: QVQLQQSGPQLVRPGASVKISCKASGYSFTSYWMHWVNQRPGQGLEWIGMIDPSYSETRLNQKFKDKATLTVDKSSSTAYMQLSSPTSEDSAVYYCALYGNYFDYWGQGTTLTVSS
VL 1: DIQMTQSSSSFSVSLGDRVTITCKASEDIYNRLAWYQQKPGNAPRLLISGATSLETGVPSRFSGSGSGKDYTLSITSLQTEDVATYYCQQYWSTPYTFGGGTKLEVK
VH 2: QVQLVESGGGVVQPGGSLRLSCAASGFTFSNAWMHWVRQAPGKGLEWVAQIKDKSQNYATYVAESVKGRFTISRADSKNSIYLQMNSLKTEDTAVYYCRYVHYAAGYGVDIWGQGTTVTVSS
VL 2: DIVMTQSPLSLPVTPGEPASISCRSSQPLVHSNRNTYLHWYQQKPGQAPRLLIYKVSNRFSGVPDRFSGSGSGTDFTLKISRVEAEDVGVYYCGQGTQVPYTFGQGTKLEIK
notes: also called negative control
As to B3, the binding result (with hCLDN9/BaF3; in assay [4]) was “no binding (tested: 15 micro g/ml)” in each case.

B4: 6PHU3/TR01 (bispecific antibody, V domains shown)
VH 1: EVQLQQSGPELVKPGASMKISCKASGYSFTGYTMNWVKQSHGKNLEWIGLINPYNGGTIYNQKFKGKATLTVDKSSSTAYMELLSLTSEDSAVYYCARDYGFVLDYWGQGTTLTVSS
VL 1: DIVLTQSPSIMSVSPGEKVTITCSASSSVSYMHWFQQKPGTSPKLCIYSTSNLASGVPARFSGRGSGTSYSLTISRVAAEDAATYYCQQRSNYPPWTFGGGTKLEIK
VH 2: QVQLVESGGGVVQPGGSLRLSCAASGFTFSNAWMHWVRQAPGKGLEWVAQIKDKSQNYATYVAESVKGRFTISRADSKNSIYLQMNSLKTEDTAVYYCRYVHYAAGYGVDIWGQGTTVTVSS
VL 2: DIVMTQSPLSLPVTPGEPASISCRSSQPLVHSNRNTYLHWYQQKPGQAPRLLIYKVSNRFSGVPDRFSGSGSGTDFTLKISRVEAEDVGVYYCGQGTQVPYTFGQGTKLEIK
notes: also called anti-CLDN6/CD3 bispecific antibody (6PHU3/TR01)
Regarding B4, the binding result with hCLDN3/BaF3 and with hCLDN4/BaF3 was “no binding (tested: 15 micro g/ml)” in each case.

Values taken from patent US20240425589A1 (Chugai, published 2024).
